In publication PMC4233170 one finds labelling of the 47/45S pre-rRNA precursor in N1S1 cells treated with TAT-22mer data, which are given here for one molecule.

The experiment deals with FLAG-tagged Rrn3 purified from infected Sf9 cells (not stated (human or mouse cDNA cloned)) (UniProt Q9NYV6).
UniProt Q9NYV6, sequence (Q9NYV6 whole entry): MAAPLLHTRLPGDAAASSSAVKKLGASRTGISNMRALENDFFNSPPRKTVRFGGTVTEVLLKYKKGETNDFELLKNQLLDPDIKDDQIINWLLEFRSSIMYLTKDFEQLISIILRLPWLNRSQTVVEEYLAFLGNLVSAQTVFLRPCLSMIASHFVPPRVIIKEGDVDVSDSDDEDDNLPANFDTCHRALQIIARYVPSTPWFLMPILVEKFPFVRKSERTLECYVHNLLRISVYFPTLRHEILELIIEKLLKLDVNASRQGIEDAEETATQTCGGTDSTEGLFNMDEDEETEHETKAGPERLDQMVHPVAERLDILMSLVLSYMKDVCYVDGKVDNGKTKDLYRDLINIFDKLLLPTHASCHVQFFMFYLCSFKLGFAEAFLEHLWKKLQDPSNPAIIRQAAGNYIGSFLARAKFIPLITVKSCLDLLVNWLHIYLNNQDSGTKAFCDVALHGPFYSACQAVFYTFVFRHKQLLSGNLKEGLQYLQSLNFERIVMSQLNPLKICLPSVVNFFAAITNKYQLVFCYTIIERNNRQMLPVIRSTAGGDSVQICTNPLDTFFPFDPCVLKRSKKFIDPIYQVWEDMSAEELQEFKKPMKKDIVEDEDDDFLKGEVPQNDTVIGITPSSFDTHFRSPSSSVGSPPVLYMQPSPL

B1: TAT-22mer: HIV TAT based cell penetrating peptide coupled to the 22mer of rpa43 (peptide)
peptide: GGGRKKRRQRRRNKVSSSHIGCLVHGCFNASIPK
Molecule B1 came in with a labelling of the 47/45S pre-rRNA precursor in N1S1 cells treated with TAT-22mer of 70 % inhibition.
